# Assay results: publication PMC3941021 (Nature structural & molecular biology, 2013)
# Where two headings read alike, the source gives them in different places.
# Columns and labels:
# Experiment in all cases: crystal structure
# [1] = molecular target: T1, EphA4 ectodomain (EphA4_(ecto)), human (human, UniProt P54764 20-547)
# [2] = molecular target: lysine-methylated EphA4 ectodomain (EphA4_(ecto)), human (human, UniProt P54764 20-547, lysine-methylated)
# [3] = molecular target: T1, EphA4 ectodomain (EphA4_(ecto)), human; remark: listed apart in the source
# T1 sequence (P54764 20-547): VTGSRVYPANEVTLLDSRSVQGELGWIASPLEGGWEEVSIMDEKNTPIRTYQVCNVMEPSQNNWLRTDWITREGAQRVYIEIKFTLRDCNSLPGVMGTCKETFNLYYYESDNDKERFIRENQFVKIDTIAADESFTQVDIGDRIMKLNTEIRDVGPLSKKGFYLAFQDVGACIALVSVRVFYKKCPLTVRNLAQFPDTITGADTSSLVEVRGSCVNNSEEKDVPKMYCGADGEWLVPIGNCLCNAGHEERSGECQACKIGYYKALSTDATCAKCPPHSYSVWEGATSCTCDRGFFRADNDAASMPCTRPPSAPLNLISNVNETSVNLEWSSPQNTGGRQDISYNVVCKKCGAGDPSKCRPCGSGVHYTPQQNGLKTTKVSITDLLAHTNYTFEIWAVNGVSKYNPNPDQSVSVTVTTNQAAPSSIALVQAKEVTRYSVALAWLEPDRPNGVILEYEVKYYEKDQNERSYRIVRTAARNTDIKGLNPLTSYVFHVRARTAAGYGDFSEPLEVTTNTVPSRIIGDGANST
# Sequence of lysine-methylated EphA4 ectodomain (EphA4_(ecto)), human (P54764 20-547): as above
binder,measurement,setting,value
"ephrinB3 receptor-binding domain (RBD), human (domain or fragment) GLSLEPVYWNSANKRFQAEGGYVLYPQIGDRLDLLCPRARPPGPHSSPNYEFYKLYLVGGAQGRRCEAPPAPNLLLTCDRPDLDLRFTIKFQEYSPNLWGHEFRSHHDYYIIATSDGTREGLESLQGGVCLTRGMKVLLRVGQ",binding result,[1],binds
"ephrinA5 receptor-binding domain (RBD), human, of the lysine-methylated complex sample (domain or fragment, lysine-methylated (the paper calls the EphA4_(ecto)-ephrinA5 RBD complex sample lysine-methylated)) AVADRYAVYWNSSNPRFQRGDYHIDVCINDYLDVFCPHYEDSVPEDKTERYVLYMVNFDGYSACDHTSKGFKRWECNRPHSPNGPLKFSEKFQLFTPFSLGFEFRPGREYFYISSAIPDNGRRSCLKLKVFVRPTNSCMK",binding result,[2],binds
"ephrinA5 receptor-binding domain (RBD), human (domain or fragment) AVADRYAVYWNSSNPRFQRGDYHIDVCINDYLDVFCPHYEDSVPEDKTERYVLYMVNFDGYSACDHTSKGFKRWECNRPHSPNGPLKFSEKFQLFTPFSLGFEFRPGREYFYISSAIPDNGRRSCLKLKVFVRPTNSCMK",binding result,[3],binds
